Measured values from patent publication US20250269058A1, “GENE THERAPY FOR TREATING NEURODEGENERATIVE DISEASES” (ABRAIN, priority 2021, published 2025).

How the values were obtained:
human Tau 40 WT = target: T1, human Tau 40 WT (Homo sapiens, UniProt P10636); assay: ThT assay, inhibition of human Tau 40 WT autoaggregation by Tau inhibitor; assay type: biochemical; conditions: 15 μM Tau protein and 30 μM inhibitor (1:2)
T1 construct: His tag (inferred from Ni-NTA purification and pQE80 vector); made in house; host or cells: E. coli BL21-DE3
Method: (§1) All inhibitor peptides were purchased from Biomatik. Dissolution was performed at a working concentration of 1.2 mM in deionized water, with a minimum purity of 95% or higher. Human Tau 40 WT was expressed by the pQE80 vector in BL21-DE3 E. coli cells grown to OD600=0.8 in LB medium. Cells were induced with 1 mM IPTG for 3 hours at 37° C. and further incubated for 4 hours, and then cultured E. coli cells were harvested by centrifugation at 5,000 rpm for 20 minutes. The obtained E. coli was resuspended in a dissolution buffer (50 mM NaH2PO4, NaCl 250 mM, 10 mM imidazole pH 8.0) and then dissolved by sonication. Cell lysates were purified by centrifugation at 15,000 rpm for 15 minutes, and 1 ml of 50% Ni-NTA slurry was added to 4 ml of the supernatant and shaken at 4° C. for 60 minutes (200 rpm on a rotator) to mix gently. […]
(§2) Autoaggregation of human Tau 40 WT or Tau inhibitor was tested using 15 μM of human Tau 40 WT protein or 30 μM of inhibitor (SEQ ID NOs: 22 or 32), 8 μM heparin, and 50 μM ThT. ThT fluorescence was measured using a Biotek Synergy H1 reader at an excitation wavelength of 440 nm and emission wavelength of 485 nm. The reactions were incubated at 37° C., and measured every 15 minutes for 70 hours with orbital vibration of 425 cpm continuously. […]

[1] = ThT assay of autoaggregation of human Tau 40 WT or Tau inhibitor; assay type: physicochemical
Method: as §1, §2

[2] = ThT assay of autoaggregation of Aβ42 WT or variant peptides; assay type: physicochemical; conditions: 10 μM peptide in PBS, 50 μM ThT, 37° C.
Method: HFIP was evaporated overnight in a fume hood and then transferred to SpeedVac for 1 hour to remove any remaining traces of HFIP, Tubes containing the peptide film were kept over desiccant at −20° C. until used. Immediately prior to experimental use, lyophilized peptides were dissolved in 0.1% NH4OH to a final concentration of 100 μM and sonicated for 10 minutes in a bath sonicator.
ThT fluorescence was measured using a Biotek Synergy H1 reader at an excitation wavelength of 440 nm and emission wavelength of 485 nm. Reactions were incubated at 37° C. and then shaken for 5 seconds every 10 minutes prior to reading the fluorescence.

T1 sequence (P10636 1-441 isoform P10636-8): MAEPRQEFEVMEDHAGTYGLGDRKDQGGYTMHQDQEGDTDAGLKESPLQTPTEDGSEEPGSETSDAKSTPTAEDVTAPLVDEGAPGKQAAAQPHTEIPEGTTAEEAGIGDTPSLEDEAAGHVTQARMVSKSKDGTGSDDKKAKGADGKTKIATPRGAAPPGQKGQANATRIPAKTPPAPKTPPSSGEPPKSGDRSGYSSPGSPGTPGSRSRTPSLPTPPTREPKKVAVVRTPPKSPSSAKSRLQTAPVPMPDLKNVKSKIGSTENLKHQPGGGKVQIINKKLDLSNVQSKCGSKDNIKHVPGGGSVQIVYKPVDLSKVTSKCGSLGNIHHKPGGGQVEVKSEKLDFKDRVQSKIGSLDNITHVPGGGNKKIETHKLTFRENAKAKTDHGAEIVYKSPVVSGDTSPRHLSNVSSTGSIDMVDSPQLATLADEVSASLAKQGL

For “TVIVITLVMLKDVQMINKKLK (Tau inhibitor) [SEQ ID NO: 32]”, the “inhibition of Tau WT aggregation (competition assay)” value (human Tau 40 WT) was “completely attenuated the aggregation of Tau WT”.

In the case of “Tau WT: Human Tau 40 WT protein expressed by the pQE80 vector in E. coli”, the “time to peak of ThT binding” value ([1]; 1 nM of seed added to Tau WT) is reported as no more than 20 h and the “time to peak of ThT binding” value ([1]; 15 μM human Tau 40 WT, 8 μM heparin, 50 μM ThT) is reported as no more than 70 h.

For “Aβ42 WT: wild-type Aβ42 peptide, synthetic, purchased from Biomatik”, the “autoaggregation in ThT assay” value [2] was “generated aggregation”.

With “MDVQMINKKLK (Tau inhibitor) [SEQ ID NO: 22]” the “inhibition of Tau WT aggregation (competition assay)” value (human Tau 40 WT) was “completely attenuated the aggregation of Tau WT”.
